Measured values reported in patent US12077586B2, “Bispecific antibodies for use in the treatment of hematological malignancies” (LAVA THERAPEUTICS N.V., priority 2018, dated 2024).

B1: 5B11: Vγ9Vδ2-TCR binding VHH, SEQ ID NO: 155 (protein)
VHH: EVQLVESGGGLVQAGGSLRLSCAASGRTSSTFSMAWFRQAPRKEREFVAAINWSGGSTRYADSVSDRFAISRDNAKNTVYLQMNNLKPEDTAVYYCAARRGGIYYSTQNDYDYWGQGTQVTVSS
modifications: antibody sequence
B2: 6C4: Vγ9Vδ2-TCR binding VHH, SEQ ID NO: 156 (protein)
VHH: EVQLVESGGGLVQAGGSLRLSCAVSVRTFSDYRMGWFRQAPGKEREFVSTISWSGGLTYYADSVKGRFTISRDNSKNTLYLQMNSLKPEDTAVYYCAAGGGYAGGTYYHPEEWGQGTQVTVSS
modifications: antibody sequence
B3: 5E3: Vγ9Vδ2-TCR binding VHH, SEQ ID NO: 139 (protein)
VHH: EVQLVESGGGLVQAGGSLRLSCTASGRTFSSYAMGWFRQAPGKEREFVAAISWSGGTTYYADSVKGRFTISRDNAKNTVSLQMNSLKPEDTAVYFCAASLDCSGPGCHTAEYDYWGQGTQVTVSS
modifications: antibody sequence
B4: 1D7: CD1d-specific VHH, SEQ ID NO: 70 (protein)
VHH: EVQLVESGGGLVQAGGSLRLSCAASVSSFSSYTMGTIRTGGSTNYADSVKGGIRWDDENPYYADSVKGRFTISRDNAKNTLYLQMNSLKPEDTANYYCAARLVPPGIPFERTLENMRYWGKGTLVTVSS
modifications: antibody sequence
B5: 5D7: Vγ9Vδ2-TCR binding VHH, SEQ ID NO: 154 (protein)
VHH: EVQLVESGGGLVQAGGSLRLSCIASGRTFSNYAMGWFRQAPGKEREFVAAISWSGGMTDHADSVKGRFTISRDNAKNTVYLQMNSLKPEDTAVYYCAAAFAGDIPYGSSWYGDPTTYDYWGQGTQVTVSS
modifications: antibody sequence
B6: 1D22: anti-CD1d VHH, SEQ ID NO: 84 (protein)
VHH: QVQLVESGGGLVQAGGSLRLSCAASGSIFSINAMGAIRWSGESPYYADSVKGVISSSGSTNYADSVKGRFTISRDNAKNTAYLQMNSLKVEDTAVYYCAAHVAGFDEYNYWGQGTQVTVSS
modifications: antibody sequence

Tests used:
Jeko-1 cells = experiment: Cytotoxicity assay with Vγ9Vδ2-T cell lines, Jeko-1 target cells; type: cell-based, human; settings: 2 hours pretreatment (50 μM pamidronate or 25 μM mevastatin), 1:2; for 1D7-5C8-induced lysis of pretreated Jeko-1 cells: 100 nM 1D7-5C8, 6 hours; for Vγ9Vδ2-T cell-mediated lysis of pretreated Jeko-1 cells: no bispecific antibody, 6 hours
Method: Target cells were then cocultured overnight with Vγ9Vδ2-T cell lines in a 1:1 ratio unless otherwise indicated. Viability was measured using Mitotracker Orange (25-minute incubation at 37° C., M7510) and To-pro-3 (10-minute incubation at room temperature; T3605, both Thermo Fisher Scientific).
If indicated, target cells were pretreated with 25 μM mevastatin (M2537, Sigma-Aldrich), 50 μM aminobisphosphonates (pamidronate, #12J08RD, TEVA Pharmachemie, Haarlem, the Netherlands) or medium control for 2 hours.
If indicated, cells were cultured with the indicated concentrations of all-trans retinoic acid (ATRA; R2625, Sigma-Aldrich) for 48 hours unless otherwise indicated. ATRA was washed away prior to cytotoxicity assays.
If indicated, target cells were pre-incubated with 5 μg/mL anti-CD1d mAb (clone 51.1, 350304, Biolegend, San Diego, CA, USA) and/or 10 μg/mL anti-CD277 mAb (clone 103.2, Creative Biolabs, Shirley, NY, USA) for 10 minutes.

[1] = system: CLL patient-derived Vγ9Vδ2-T cells; experiment: Activation, cytokine and degranulation assay with autologous CLL patient-derived Vγ9Vδ2-T cells; type: cell-based, human; settings: overnight culture of CLL PBMC; 1D7-5C8 50 nM
Text: (A-C) Activation of and cytokine production and degranulation by patient-derived Vγ9Vδ2-T cells. […] (D) Lysis of primary CLL cells by autologous Vγ9Vδ2-T cells. […] Live CLL cells were quantified by flow cytometry using counting beads (n=5). (E) Expansion of patient-derived Vγ9Vδ2-T cells. […] Percentage Vγ9Vδ2-T cells after 1 week (n=8). Data are presented as mean and SD. *P<0.05, **P<0.01, ***P<0.001. (A-D: one-way ANOVA followed by Dunnett's post hoc test compared to medium control; E: paired t-test).

Vδ2 chain = target: T1, Vδ2 chain (Homo sapiens, UniProt A0JD36); settings: Mean Fluorescence Index class; γδ T-cells expressing Vδ2 chain paired with non Vγ9 chain; cited from earlier work
T1 construct: host or cells: γδ T-cells expressing a Vδ2 chain paired with a non-Vγ9 chain
T1 sequence (A0JD36 with tags, fused parts or gaps): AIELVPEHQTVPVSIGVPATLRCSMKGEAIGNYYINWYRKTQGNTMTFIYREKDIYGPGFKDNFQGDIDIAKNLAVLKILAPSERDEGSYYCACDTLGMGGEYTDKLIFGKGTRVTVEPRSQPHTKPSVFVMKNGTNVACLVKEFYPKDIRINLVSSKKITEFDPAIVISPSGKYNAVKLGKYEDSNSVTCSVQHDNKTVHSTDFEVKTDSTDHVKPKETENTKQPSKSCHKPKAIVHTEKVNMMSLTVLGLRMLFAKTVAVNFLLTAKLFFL
T1 sequence (P07766 23-207 partner): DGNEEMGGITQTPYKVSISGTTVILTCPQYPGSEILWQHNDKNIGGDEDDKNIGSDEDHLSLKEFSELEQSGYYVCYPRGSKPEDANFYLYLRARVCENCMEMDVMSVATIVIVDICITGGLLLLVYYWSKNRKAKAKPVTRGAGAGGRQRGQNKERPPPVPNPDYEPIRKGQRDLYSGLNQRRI
T1 sequence (P09693 23-182 partner): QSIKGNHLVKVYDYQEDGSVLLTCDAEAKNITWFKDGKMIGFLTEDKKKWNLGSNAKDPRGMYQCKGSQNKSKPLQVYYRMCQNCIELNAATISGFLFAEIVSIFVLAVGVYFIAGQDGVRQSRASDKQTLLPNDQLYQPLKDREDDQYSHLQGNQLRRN
T1 sequence (P04234 22-171 partner): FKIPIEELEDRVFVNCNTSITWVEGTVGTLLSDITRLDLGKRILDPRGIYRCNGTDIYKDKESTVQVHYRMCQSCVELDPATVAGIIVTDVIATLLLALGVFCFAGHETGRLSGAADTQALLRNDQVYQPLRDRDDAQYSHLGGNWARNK
T1 sequence (P20963 22-164 partner): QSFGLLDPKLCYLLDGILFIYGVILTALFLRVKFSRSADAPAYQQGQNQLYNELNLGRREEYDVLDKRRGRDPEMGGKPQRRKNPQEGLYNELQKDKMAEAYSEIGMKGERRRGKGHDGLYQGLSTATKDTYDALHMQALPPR

Vγ9 chain = target: T2, Vγ9 chain (Homo sapiens, UniProt Q99603, T7A); settings: Mean Fluorescence Index class; γδ T-cells expressing Vγ9 chain paired with non Vδ2 chain; cited from earlier work
T2 construct: host or cells: γδ T-cells expressing a Vγ9 chain paired with a non-Vδ2 chain
T2 sequence (Q99603 with tags, fused parts or gaps T7A limits assumed): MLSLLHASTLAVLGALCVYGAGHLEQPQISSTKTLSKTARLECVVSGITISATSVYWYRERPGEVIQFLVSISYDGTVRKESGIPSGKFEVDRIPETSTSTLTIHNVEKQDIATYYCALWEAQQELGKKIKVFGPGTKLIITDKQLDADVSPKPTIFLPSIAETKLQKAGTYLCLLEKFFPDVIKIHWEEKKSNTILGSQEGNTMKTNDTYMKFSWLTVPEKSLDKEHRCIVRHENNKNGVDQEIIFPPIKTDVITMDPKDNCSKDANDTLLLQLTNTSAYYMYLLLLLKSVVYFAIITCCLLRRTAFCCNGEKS
T2 sequence (P07766 23-207 partner): as the sequence (P07766 23-207 partner) above
T2 sequence (P09693 23-182 partner): as the sequence (P09693 23-182 partner) above
T2 sequence (P04234 22-171 partner): as the sequence (P04234 22-171 partner) above
T2 sequence (P20963 22-164 partner): as the sequence (P20963 22-164 partner) above

complete Vγ9Vδ2 TCR = target: T3, complete Vγ9Vδ2 TCR (Homo sapiens, UniProt A0JD36+Q99603, T7A); settings: Mean Fluorescence Index class; cited from earlier work
T3 construct: host or cells: γδ T-cells expressing the complete Vγ9Vδ2 TCR
T3 sequence (Q99603 with tags, fused parts or gaps T7A limits assumed): as the sequence (Q99603 with tags, fused parts or gaps T7A limits assumed) above
T3 sequence (A0JD36 with tags, fused parts or gaps, stated change not applied): as the sequence (A0JD36 with tags, fused parts or gaps) above
T3 sequence (P07766 23-207 partner): as the sequence (P07766 23-207 partner) above
T3 sequence (P09693 23-182 partner): as the sequence (P09693 23-182 partner) above
T3 sequence (P04234 22-171 partner): as the sequence (P04234 22-171 partner) above
T3 sequence (P20963 22-164 partner): as the sequence (P20963 22-164 partner) above

[2] = system: γδ T-cells not expressing any of the Vγ9Vδ2 TCR chains; settings: Mean Fluorescence Index class; cells not expressing any Vγ9Vδ2 TCR chain; cited from earlier work
CD1d = target: T4, CD1d (Homo sapiens, UniProt P15813); settings: previously characterized; cited from earlier work
T4 construct: expressed in transfected cells; host or cells: MM.1s (human multiple myeloma cell line) stably transduced with CD1d
T4 sequence (P15813 20-335): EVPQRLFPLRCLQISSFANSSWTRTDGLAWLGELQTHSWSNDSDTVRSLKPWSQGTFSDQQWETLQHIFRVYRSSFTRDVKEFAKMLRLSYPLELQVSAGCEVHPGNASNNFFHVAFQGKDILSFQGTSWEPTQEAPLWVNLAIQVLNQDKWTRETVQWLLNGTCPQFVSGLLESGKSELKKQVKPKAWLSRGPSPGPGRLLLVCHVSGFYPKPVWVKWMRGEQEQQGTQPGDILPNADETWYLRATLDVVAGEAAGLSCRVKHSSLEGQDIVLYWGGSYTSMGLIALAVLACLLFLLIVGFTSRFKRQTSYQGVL
T4 sequence (P61769 21-119 partner): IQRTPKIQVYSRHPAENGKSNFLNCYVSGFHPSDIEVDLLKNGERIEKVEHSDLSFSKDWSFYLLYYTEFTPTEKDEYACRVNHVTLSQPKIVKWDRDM

iNKT cells = experiment: Modulation of iNKT cell activation (co-culture with Hela-CD1d cells); type: cell-based, human; settings: 24 hr co-culture with Hela-CD1d pulsed with vehicle or α-GalCer; 1D12 100 nM, 1D22 1000 nM
Text: FIG. 1. […] Representative dot-plots illustrating marked activation by 1D12 (A) or inhibition by 1D22 (B) of iNKT cells as depicted by CD25 expression, in addition to a marked increase (by 1D12) or decrease (by 1D22) in iNKT cell IFN-γ production (C and D). Data represent mean+SD of 3-4 individual experiments with iNKT obtained from different donors, **P<0.01, ***P<0.001, calculated with a one-way analysis of variance with Turkey's post hoc test.
To evaluate the capacity of 1D12 and 1D22 to stimulate or inhibit iNKT cell activation, 5×10^4 Hela-CD1d cells were seeded per well in a 96-well tissue culture plate and pulsed overnight with vehicle control (DMSO 0.01%) or 100 ng/ml α-GalCer. Cells were then washed with PBS and incubated with medium, or the anti-CD1d specific VHH for 1 hr at the indicated concentrations. Subsequently, 5×10^4 pure and resting iNKT were added to each well. After 24 hr, culture supernatants were analyzed for (induction or inhibition of) cytokine production by CBA (BD Biosciences) whereas iNKT cells were harvested and analyzed for CD25 expression by flow cytometry.

Jurkat-Vδ1 cells = experiment: Modulation of Jurkat-Vδ1 cell activation (C1R-CD1d co-culture, CD69); type: cell-based, human; settings: C1R-CD1d pulsed with 25 μg/ml sulfatide; VHH 100 nM or 1000 nM; 24 hr
Method: (§1) FIG. 2. Vδ1-sulf-CD1d interaction is prevented by anti-CD1d VHH 1D12 and reduced by 1D22. Endogenous or sulfatide loaded CD1d-PE tetramers were incubated with either PBS (control), 1D12 or 1D22 (4:1VHH:CD1d ratio) after which tetramers were used to stain Jurkat-Vδ1 cells (final concentration tetramer 2 μg/ml) in combination with CD3-APC. Tetramer binding is prevented by 1D12 and reduced by 1D22 (A). C1R-CD1d cells were incubated with DMSO controls or sulfatide (25 μg/ml) after which medium or anti-CD1d VHH were added at 1000 or 100 nM and incubated for 30 min. Next Jurkat-Vδ1 cells were added and the co-culture was incubated for an additional 24 h after which CD69 expression was determined by flow cytometry (B). N=3.
iNKT cells are known to dock over the extreme F′ pocket of CD1d which contrasts with sulfatide-CD1d restricted Vδ1-T cells that dock more towards the A′ pocket. We therefore evaluated the effect of 1D12 and 1D22 on sulfatide-CD1d restricted Vδ1-T cells. To evaluate the effect of 1D12 and 1D22 on Jurkat-Vδ1 cell activation, 1×10^5 C1R-CD1d cells were seeded per well in a 96-well tissue culture plate and pulsed for 2 hr with vehicle control (DMSO 0.05%) or 25 μg/ml sulfatide. […] After 24 hr Jurkat-Vδ1 cells were harvested and analysed for CD69 expression by flow cytometry. […]

[3] = target: T5, sulfatide-loaded CD1d tetramers (Homo sapiens, UniProt P15813); experiment: CD1d-tetramer binding on Jurkat-Vδ1 cells; settings: ratio VHH:CD1d of ~4:1; tetramer 2 μg/ml
T5 construct: made in house
T5 sequence (P15813 20-301 limits assumed): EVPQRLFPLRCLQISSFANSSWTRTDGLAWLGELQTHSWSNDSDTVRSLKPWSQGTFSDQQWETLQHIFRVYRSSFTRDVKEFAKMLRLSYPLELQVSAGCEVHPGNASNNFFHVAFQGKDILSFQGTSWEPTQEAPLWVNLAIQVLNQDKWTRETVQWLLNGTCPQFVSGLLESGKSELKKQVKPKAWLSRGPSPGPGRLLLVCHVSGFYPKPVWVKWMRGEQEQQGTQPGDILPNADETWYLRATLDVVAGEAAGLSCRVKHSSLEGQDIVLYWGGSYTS
T5 sequence (P61769 21-119 partner): as the sequence (P61769 21-119 partner) above
Method: as §1
To evaluate the effect of 1D12 and 1D22 on CD1d-tetramer binding on Jurkat-Vδ1 cells, endogenous or sulfatide-loaded CD1d-PE tetramers were incubated with either PBS (control), 1D12 or 1D22 (ratio VHH:CD1d of ˜4:1) for 30 min at room temperature after which tetramers were added to Jurkat-Vδ1 cells (final concentration tetramer 2 μg/ml) in combination with CD3-APC and incubated for 45 min at 4 degrees Celsius. Data was analyzed by flow cytometry.

| Molecule | Binding, Vδ2+ (Vδ2 chain) | Binding, Vγ9+ (Vγ9 chain) | Binding, Vγ9Vδ2+ (complete Vγ9Vδ2 TCR) | Binding, Vγ9Vδ2− [2] | other results |
| --- | --- | --- | --- | --- | --- |
| NCCC(O)(P(=O)(O)O)P(=O)(O)O [pamidronate, reference compound] |  |  |  |  | 1D7-5C8-induced lysis of pretreated Jeko-1 cells (Jeko-1 cells): led to an increase in bispecific antibody 1D7-5C8-induced lysis of Jeko-1 cells; Vγ9Vδ2-T cell-mediated lysis of pretreated Jeko-1 cells (Jeko-1 cells): more sensitive to Vγ9Vδ2-T cell-mediated cytotoxicity; Upregulation of activation marker CD25 on patient Vγ9Vδ2-T cells [1]: 20.5 fold |
| CC[C@H](C)C(=O)O[C@H]1CCC=C2C=C[C@H](C)[C@H](CC[C@@H]3C[C@@H](O)CC(=O)O3)[C@H]21 [mevastatin, reference compound] |  |  |  |  | 1D7-5C8-induced lysis of pretreated Jeko-1 cells (Jeko-1 cells): decreased bispecific antibody 1D7-5C8-induced lysis; Vγ9Vδ2-T cell-mediated lysis of pretreated Jeko-1 cells (Jeko-1 cells): led to a reduction in lysis |
| B1 | − (“−” indicates a Mean Fluorescence Index (MFI) below 1.5) | − (“−” indicates a Mean Fluorescence Index (MFI) below 1.5) | + (“+” indicates an MFI of between 4.6 and 20) | − (“−” indicates a Mean Fluorescence Index (MFI) below 1.5) |  |
| B2 | +/− (“+/−” indicates an MFI of between 1.5 and 4.5) | ++ (“++” indicates an MFI above 20) | ++ (“++” indicates an MFI above 20) | − (“−” indicates a Mean Fluorescence Index (MFI) below 1.5) |  |
| B3 | − (“−” indicates a Mean Fluorescence Index (MFI) below 1.5) | ++ (“++” indicates an MFI above 20) | ++ (“++” indicates an MFI above 20) | − (“−” indicates a Mean Fluorescence Index (MFI) below 1.5) |  |
| B4 |  |  |  |  | Affinity for CD1d (CD1d): high affinity for CD1d |
| B5 | ++ (“++” indicates an MFI above 20) | − (“−” indicates a Mean Fluorescence Index (MFI) below 1.5) | ++ (“++” indicates an MFI above 20) | − (“−” indicates a Mean Fluorescence Index (MFI) below 1.5) |  |
| B6 |  |  |  |  | iNKT cell activation (CD25 expression) and cytokine production (iNKT cells): completely blocked iNKT cell activation and cytokine production; Jurkat-Vδ1 cell activation (CD69 expression) (Jurkat-Vδ1 cells): only a limited impact on expression of the activation marker CD69; Binding of sulfatide-loaded CD1d tetramers to Jurkat-Vδ1 cells [3]: only a limited impact |
